Assay results as given in US20140206607A1 (INDIANA UNIVERSITY RESEARCH AND TECHNOLOGY, published 2014).
Numbered stars: 1 amine (or outer) side, 2 acyl side, 3 side chain; on linkers, the order of the positions; unused ones are H or OH. Square brackets hold non-standard residues; d marks the D form. Primed or numbered codes have the meaning given here. Side chains are listed from the residue outwards. Ends that are not written are not given here. * marks the point of attachment. 40K‑TE PEG = 40 kDa PEG covalently bound via thioether, formed by reaction of the free thiol of the peptide (Cys side chain) with an iodoacetic-functionalized PEG; 20K‑TE PEG″ = 20 kDa PEG attached via a thioether, formed by reacting the free thiol of the peptide with an iodoacetic-functionalized PEG; 12K‑ME PEG = 12 kDa PEG bound via maleimido-thioether; γGlu = O=C(O)[C@H](CCC(=O)[*:2])N[*:1]; Palmitoyl = CCCCCCCCCCCCCCCC(=O)*; EC16 = not defined here; Aib = CC(C)(N)C(=O)O

T1: GIP receptor (UniProt P48546 22-466)
T1 sequence (looked up): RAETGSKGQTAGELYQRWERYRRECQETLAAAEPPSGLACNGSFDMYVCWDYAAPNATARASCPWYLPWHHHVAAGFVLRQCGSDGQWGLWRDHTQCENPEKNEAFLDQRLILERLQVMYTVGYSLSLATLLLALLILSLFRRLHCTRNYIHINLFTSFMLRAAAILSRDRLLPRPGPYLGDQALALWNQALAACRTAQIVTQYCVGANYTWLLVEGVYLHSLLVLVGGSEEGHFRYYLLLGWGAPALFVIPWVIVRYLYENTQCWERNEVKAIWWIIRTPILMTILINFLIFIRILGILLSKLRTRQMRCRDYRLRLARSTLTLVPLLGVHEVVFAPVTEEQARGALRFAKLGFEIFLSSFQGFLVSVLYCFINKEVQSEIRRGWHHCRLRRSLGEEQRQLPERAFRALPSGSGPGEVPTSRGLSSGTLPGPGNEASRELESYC

B1: peptide of SEQ ID NO: 56 (peptide)
peptide: H[dA]QGTFTSDK([γGlu-Palmitoyl])SKYLDERAAQDFVQWLLDT-NH2
modifications: N-terminus assumed
SMILES: CCCCCCCCCCCCCCCC(=O)N[C@@H](CCC(=O)NCCCC[C@H](NC(=O)[C@H](CC(=O)O)NC(=O)[C@H](CO)NC(=O)[C@@H](NC(=O)[C@H](Cc1ccccc1)NC(=O)[C@@H](NC(=O)CNC(=O)[C@H](CCC(N)=O)NC(=O)[C@@H](C)NC(=O)[C@@H](N)Cc1c[nH]cn1)[C@@H](C)O)[C@@H](C)O)C(=O)N[C@@H](CO)C(=O)N[C@@H](CCCCN)C(=O)N[C@@H](Cc1ccc(O)cc1)C(=O)N[C@@H](CC(C)C)C(=O)N[C@@H](CC(=O)O)C(=O)N[C@@H](CCC(=O)O)C(=O)N[C@@H](CCCNC(=N)N)C(=O)N[C@@H](C)C(=O)N[C@@H](C)C(=O)N[C@@H](CCC(N)=O)C(=O)N[C@@H](CC(=O)O)C(=O)N[C@@H](Cc1ccccc1)C(=O)N[C@H](C(=O)N[C@@H](CCC(N)=O)C(=O)N[C@@H](Cc1c[nH]c2ccccc12)C(=O)N[C@@H](CC(C)C)C(=O)N[C@@H](CC(C)C)C(=O)N[C@@H](CC(=O)O)C(=O)N[C@H](C(N)=O)[C@@H](C)O)C(C)C)C(=O)O
B2: peptide of SEQ ID NO: 58 (peptide)
peptide: H[Aib]QGTFTSDK(Palmitoyl)SKYLDSRRA[Aib]DFVQWLMNT-NH2
modifications: N-terminus assumed
SMILES: CCCCCCCCCCCCCCCC(=O)NCCCC[C@H](NC(=O)[C@H](CC(=O)O)NC(=O)[C@H](CO)NC(=O)[C@@H](NC(=O)[C@H](Cc1ccccc1)NC(=O)[C@@H](NC(=O)CNC(=O)[C@H](CCC(N)=O)NC(=O)C(C)(C)NC(=O)[C@@H](N)Cc1c[nH]cn1)[C@@H](C)O)[C@@H](C)O)C(=O)N[C@@H](CO)C(=O)N[C@@H](CCCCN)C(=O)N[C@@H](Cc1ccc(O)cc1)C(=O)N[C@@H](CC(C)C)C(=O)N[C@@H](CC(=O)O)C(=O)N[C@@H](CO)C(=O)N[C@@H](CCCNC(=N)N)C(=O)N[C@@H](CCCNC(=N)N)C(=O)N[C@@H](C)C(=O)NC(C)(C)C(=O)N[C@@H](CC(=O)O)C(=O)N[C@@H](Cc1ccccc1)C(=O)N[C@H](C(=O)N[C@@H](CCC(N)=O)C(=O)N[C@@H](Cc1c[nH]c2ccccc12)C(=O)N[C@@H](CC(C)C)C(=O)N[C@@H](CCSC)C(=O)N[C@@H](CC(N)=O)C(=O)N[C@H](C(N)=O)[C@@H](C)O)C(C)C
B3: peptide of SEQ ID NO: 19 (peptide)
peptide: H[dS]QGTFTSDK([γGlu-EC16])SKYLDERAAQDFVQWLLDGRG-NH2
modifications: reading uncertain; also: printed as HsQGTFTSDK(gammaGlu-EC16)SKYLDERAAQDFVQWLLDGRG-amide
B4: peptide of SEQ ID NO: 59 (peptide)
peptide: H[Aib]QGTFTSDKSKYLDERRA[Aib]DFVQWLMNT-NH2
modifications: not fully specified (residue 10); printed as HaibQGTFTSDK(C16 acyl)SKYLDERRAaibDFVQWLMNT-amide

The binders below were run against glucagon receptor (UniProt P47871 26-477, limits assumed) (assay: cell-based or functional assay).
Sequence of glucagon receptor (P47871 26-477 limits assumed): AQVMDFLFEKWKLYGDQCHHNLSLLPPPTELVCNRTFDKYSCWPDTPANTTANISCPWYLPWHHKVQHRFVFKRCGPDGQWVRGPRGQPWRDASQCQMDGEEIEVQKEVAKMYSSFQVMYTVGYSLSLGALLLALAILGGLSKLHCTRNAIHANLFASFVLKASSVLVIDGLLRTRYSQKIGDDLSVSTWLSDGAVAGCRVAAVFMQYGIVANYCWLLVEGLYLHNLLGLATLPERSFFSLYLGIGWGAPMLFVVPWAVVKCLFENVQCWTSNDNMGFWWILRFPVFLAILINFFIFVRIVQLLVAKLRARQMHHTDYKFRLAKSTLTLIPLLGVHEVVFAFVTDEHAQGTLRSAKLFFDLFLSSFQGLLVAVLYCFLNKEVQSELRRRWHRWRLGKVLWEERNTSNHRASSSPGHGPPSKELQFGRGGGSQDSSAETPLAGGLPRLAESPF

Binder	EC50 (nM) at glucagon receptor [nM]
H[Aib]QGTFTSDYSKYLDEKRA[Aib]EFVC(40K‑TE PEG)WLL[Aib]GGPSSGAPPPS-NH2 [peptide of SEQ ID NO: 51]	2.04
H[dS]QGTFTSDK([γGlu-Palmitoyl])SKYLDEQAAKEFIC(12K‑ME PEG)WLLDT-NH2 [peptide of SEQ ID NO: 43]	0.02
H[dS]QGTFTSDK([γGlu-Palmitoyl])SKYLDEQAAKEFIC(20K‑TE PEG″)WLLDT-NH2 [peptide of SEQ ID NO: 44]	0.023
H[Aib]QGTFTSDYSKYLD[Aib]KRAKEFVQWLLC(40K‑TE PEG)T-OH [peptide of SEQ ID NO: 39]	0.852
B1	0.006
H[Aib]QGTFTSDYSKYLD[Aib]KRAKEFVQWLLDTC(40K‑TE PEG)-NH2 [peptide of SEQ ID NO: 40]	1.19
B2	0.09
H[dS]QGTFTSDK(EDTA amide)SKYLDERAAQDFVQWLLDGGPSSGAPPPS-NH2 [peptide of SEQ ID NO: 55]	4.34
B3	0.004
H[Aib]QGTFTSDYSKYLDEKRA[Aib]DFVC(40K‑TE PEG)WLLDT-NH2 [peptide of SEQ ID NO: 54]	0.939
H[Aib]QGTFTSDYSKYLDEKRA[Aib]EFVC(40K‑TE PEG)WLL[Aib]T-NH2 [peptide of SEQ ID NO: 41]	0.309
H[dS]QGTFTSDK(benzoylpropionyl)SKYLDERAAQDFVQWLLDGGPSSGAPPPS-NH2 [peptide of SEQ ID NO: 49]	0.063
H[Aib]QGTFTSDYSKYLDEKRA[Aib]EFVC(40K‑TE PEG)WLLDGGPSSGAPPPS-NH2 [peptide of SEQ ID NO: 47]	0.591
H[Aib]QGTFTSDYSKYLD[Aib]KRA[Aib]EFVC(40K‑TE PEG)WLLDGGPSSGAPPPS-NH2 [peptide of SEQ ID NO: 46]	0.227
H[Aib]QGTFTSDYSKYLDEKRA[Aib]EFVC(40K‑TE PEG)WLLDT-OH [peptide of SEQ ID NO: 45]	0.651
H[dS]QGTFTSDK([γGlu-adamantylacetyl])SKYLDERAAQDFVQWLLDT-NH2 [peptide of SEQ ID NO: 48]	0.026
H[Aib]QGTFTSDYSKYLDEK[Aib]AKEFVC(40K‑TE PEG)WLLDT-NH2 [peptide of SEQ ID NO: 52]	4.5
H[Aib]QGTFTSDYSKYLD[Aib]KRA[Aib]EFVC(40K‑TE PEG)WLLDT-NH2 [peptide of SEQ ID NO: 38]	0.141
H[Aib]QGTFTSDK([γGlu-Palmitoyl])SKYLD[Aib]RAAQDFVQWLMKTK[dE]-OH [peptide of SEQ ID NO: 60]	4.6
H[Aib]QGTFTSDYSKYLDEKRA[Aib]EFV[Aib]WLLC(40K‑TE PEG)T-NH2 [peptide of SEQ ID NO: 42]	1.01
B4	0.051
H[Aib]QGTFTSDYSKYLDEKRA[Aib]EFVC(40K‑TE PEG)WLLDE-NH2 [peptide of SEQ ID NO: 16]	0.563
H[Aib]QGTFTSDYSKYLDEKRA[Aib]EFVC(40K‑TE PEG)WLLDT-NH2 [peptide of SEQ ID NO: 13]	0.141
HXQGTFTSDKSKYLDERAAQDFVQWLMDT (Aib at 2; Lys 10 acylated, printed K(γEyEC16); C-terminal amide) [peptide of SEQ ID NO: 61]	0.009

The binders below were run against GLP-1 receptor (UniProt P43220 24-463, limits assumed) (assay: cell-based or functional assay).

Binder	EC50 (nM) at GLP-1 receptor [nM]
H[Aib]QGTFTSDYSKYLDEKRA[Aib]EFVC(40K‑TE PEG)WLL[Aib]GGPSSGAPPPS-NH2 [peptide of SEQ ID NO: 51]	0.062
H[dS]QGTFTSDK([γGlu-Palmitoyl])SKYLDEQAAKEFIC(12K‑ME PEG)WLLDT-NH2 [peptide of SEQ ID NO: 43]	0.011
H[dS]QGTFTSDK([γGlu-Palmitoyl])SKYLDEQAAKEFIC(20K‑TE PEG″)WLLDT-NH2 [peptide of SEQ ID NO: 44]	0.017
H[Aib]QGTFTSDYSKYLD[Aib]KRAKEFVQWLLC(40K‑TE PEG)T-OH [peptide of SEQ ID NO: 39]	1.28
B1	0.02
H[Aib]QGTFTSDYSKYLD[Aib]KRAKEFVQWLLDTC(40K‑TE PEG)-NH2 [peptide of SEQ ID NO: 40]	0.653
B2	0.025
H[dS]QGTFTSDK(EDTA amide)SKYLDERAAQDFVQWLLDGGPSSGAPPPS-NH2 [peptide of SEQ ID NO: 55]	0.108
B3	0.002
H[Aib]QGTFTSDYSKYLDEKRA[Aib]DFVC(40K‑TE PEG)WLLDT-NH2 [peptide of SEQ ID NO: 54]	0.097
H[Aib]QGTFTSDYSKYLDEKRA[Aib]EFVC(40K‑TE PEG)WLL[Aib]T-NH2 [peptide of SEQ ID NO: 41]	0.074
H[dS]QGTFTSDK(benzoylpropionyl)SKYLDERAAQDFVQWLLDGGPSSGAPPPS-NH2 [peptide of SEQ ID NO: 49]	0.01
H[Aib]QGTFTSDYSKYLDEKRA[Aib]EFVC(40K‑TE PEG)WLLDGGPSSGAPPPS-NH2 [peptide of SEQ ID NO: 47]	0.052
H[Aib]QGTFTSDYSKYLD[Aib]KRA[Aib]EFVC(40K‑TE PEG)WLLDGGPSSGAPPPS-NH2 [peptide of SEQ ID NO: 46]	0.136
H[Aib]QGTFTSDYSKYLDEKRA[Aib]EFVC(40K‑TE PEG)WLLDT-OH [peptide of SEQ ID NO: 45]	1.44
H[dS]QGTFTSDK([γGlu-adamantylacetyl])SKYLDERAAQDFVQWLLDT-NH2 [peptide of SEQ ID NO: 48]	0.039
H[Aib]QGTFTSDYSKYLDEK[Aib]AKEFVC(40K‑TE PEG)WLLDT-NH2 [peptide of SEQ ID NO: 52]	0.054
H[Aib]QGTFTSDYSKYLD[Aib]KRA[Aib]EFVC(40K‑TE PEG)WLLDT-NH2 [peptide of SEQ ID NO: 38]	0.31
H[Aib]QGTFTSDK([γGlu-Palmitoyl])SKYLD[Aib]RAAQDFVQWLMKTK[dE]-OH [peptide of SEQ ID NO: 60]	0.033
H[Aib]QGTFTSDYSKYLDEKRA[Aib]EFV[Aib]WLLC(40K‑TE PEG)T-NH2 [peptide of SEQ ID NO: 42]	0.117
B4	0.01
H[Aib]QGTFTSDYSKYLDEKRA[Aib]EFVC(40K‑TE PEG)WLLDE-NH2 [peptide of SEQ ID NO: 16]	0.487
H[Aib]QGTFTSDYSKYLDEKRA[Aib]EFVC(40K‑TE PEG)WLLDT-NH2 [peptide of SEQ ID NO: 13]	0.067
HXQGTFTSDKSKYLDERAAQDFVQWLMDT (Aib at 2; Lys 10 acylated, printed K(γEyEC16); C-terminal amide) [peptide of SEQ ID NO: 61]	0.004

These binders were tested against T1, GIP receptor (assay: cell-based or functional assay).

Binder	EC50 (nM) at GIP receptor [nM]
B1	1.64
B2	35.7
B3	0.812
H[Aib]QGTFTSDK([γGlu-Palmitoyl])SKYLD[Aib]RAAQDFVQWLMKTK[dE]-OH [peptide of SEQ ID NO: 60]	147
B4	7.48
H[Aib]QGTFTSDYSKYLDEKRA[Aib]EFVC(40K‑TE PEG)WLLDE-NH2 [peptide of SEQ ID NO: 16]	465
HXQGTFTSDKSKYLDERAAQDFVQWLMDT (Aib at 2; Lys 10 acylated, printed K(γEyEC16); C-terminal amide) [peptide of SEQ ID NO: 61]	0.676
